Laboratory results: paper PMC9603081, “Transcription Factors as Important Regulators of Changes in Behavior through Domestication of Gray Rats: Quantitative Data from RNA Sequencing”

Each molecule was assayed against T1, TBP (TATA-binding protein) (Homo sapiens, UniProt P20226 1-339) (assay: EMSA; association kinetics, 0.3 nM TBP; Table S2 in vitro -ln(KD) 15.05 disagrees; EMSA association kinetics, 0.3 nM TBP, four ODN concentrations; buffer, salt, pH and temperature not in the material). Conditions: protein: recombinant; label: 32P both strands; blunt.
T1 sequence (P20226 whole entry): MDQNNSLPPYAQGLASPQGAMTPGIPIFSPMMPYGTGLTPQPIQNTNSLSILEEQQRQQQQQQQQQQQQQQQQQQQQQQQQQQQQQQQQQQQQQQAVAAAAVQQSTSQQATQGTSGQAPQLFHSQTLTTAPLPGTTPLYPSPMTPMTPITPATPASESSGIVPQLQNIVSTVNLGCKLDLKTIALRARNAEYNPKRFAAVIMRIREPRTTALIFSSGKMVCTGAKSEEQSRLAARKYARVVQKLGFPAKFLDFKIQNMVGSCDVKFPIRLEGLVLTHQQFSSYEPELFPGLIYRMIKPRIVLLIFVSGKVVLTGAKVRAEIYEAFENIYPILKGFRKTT

Row | Molecule | Kd [nM]
1 | ASCL3 WT (dsDNA) DNA 1: TCGAAAAATAAAATAAAATAAAACAT DNA 2: ATGTTTTATTTTATTTTATTTTTCGA | 12

The molecules below were run against T1, TBP (TATA-binding protein) (assay: EMSA; EMSA association kinetics, 0.3 nM TBP, four ODN concentrations; buffer, salt, pH and temperature not in the material). Conditions: protein: recombinant; label: 32P both strands; blunt.

Row | Molecule | Kd [nM]
2 | HBB rs33931746 A-27T (dsDNA) DNA 1: CAGGGCTGGGCATATAAGTCAGGGCA DNA 2: TGCCCTGACTTATATGCCCAGCCCTG | 59.9
3 | HBB rs34598529 A-28G (row 10) (dsDNA) DNA 1: CAGGGCTGGGCATGAAAGTCAGGGCA DNA 2: TGCCCTGACTTTCATGCCCAGCCCTG | 499
4 | HBB rs34500389 C-32T (dsDNA) DNA 1: CAGGGCTGGGTATAAAAGTCAGGGCA DNA 2: TGCCCTGACTTTTATACCCAGCCCTG | 31.9
5 | HBD WT (dsDNA) DNA 1: ACAGGACCAGCATAAAAGGCAGGGCA DNA 2: TGCCCTGCCTTTTATGCTGGTCCTGT | 70.3
6 | HBD rs35518301 A-31G (dsDNA) DNA 1: ACAGGACCAGCGTAAAAGGCAGGGCA DNA 2: TGCCCTGCCTTTTACGCTGGTCCTGT | 99.8
7 | HBD rs34166473 T-30C (dsDNA) DNA 1: ACAGGACCAGCACAAAAGGCAGGGCA DNA 2: TGCCCTGCCTTTTGTGCTGGTCCTGT | 170
8 | HBB WT (dsDNA) DNA 1: CAGGGCTGGGCATAAAAGTCAGGGCA DNA 2: TGCCCTGACTTTTATGCCCAGCCCTG | 50.1
9 | HBB rs34598529 A-28G (row 2) (dsDNA) DNA 1: CAGGGCTGGGCATAGAAGTCAGGGCA DNA 2: TGCCCTGACTTCTATGCCCAGCCCTG | 557
10 | HBB rs34598529 A-28C (dsDNA) DNA 1: CAGGGCTGGGCATACAAGTCAGGGCA DNA 2: TGCCCTGACTTGTATGCCCAGCCCTG | 499
11 | HBB rs281864525 A-25C (dsDNA) DNA 1: CAGGGCTGGGCATAAACGTCAGGGCA DNA 2: TGCCCTGACGTTTATGCCCAGCCCTG | 150
12 | HBB rs63750953 del -25AA (dsDNA) DNA 1: CCAGGGCTGGGCATAAGTCAGGGCAG DNA 2: CTGCCCTGACTTATGCCCAGCCCTGG | 150
13 | HBB rs33980857 T-29A (dsDNA) DNA 1: CAGGGCTGGGCAAAAAAGTCAGGGCA DNA 2: TGCCCTGACTTTTTTGCCCAGCCCTG | 110
14 | HBB rs33980857 T-29C (dsDNA) DNA 1: CAGGGCTGGGCACAAAAGTCAGGGCA DNA 2: TGCCCTGACTTTTGTGCCCAGCCCTG | 140
15 | HBB rs33980857 T-29G (dsDNA) DNA 1: CAGGGCTGGGCAGAAAAGTCAGGGCA DNA 2: TGCCCTGACTTTTCTGCCCAGCCCTG | 110

These molecules were tested against TBP (TATA-binding protein) (Homo sapiens) (UniProt P20226) (assay: EMSA). Conditions: EMSA association kinetics, 0.3 nM TBP, four ODN concentrations; buffer, salt, pH and temperature not in the material.
TBP (TATA-binding protein) (Homo sapiens), sequence (P20226 whole entry): as the sequence (P20226 whole entry) above

Row | Molecule | Kd [nM]
16 | TCGAAAAATAAAACAAAATAAAACAT (double strand) [ASCL3 rs1049743008 T-45c] | 17
